According to patent US20200079833A1 (AstraZeneca / MedImmune, published 2020):
Starred links: 1 amine or outer side, 2 acyl side, 3 side chain; linkers in the order of their positions; H or OH if unused. Non-standard residues stand in square brackets, D forms with d. Groups on a side chain read outwards from the residue. No end group written: not given here. *: point of attachment. γGlu = O=C(O)[C@H](CCC(=O)[*:2])N[*:1]; Stearoyl = CCCCCCCCCCCCCCCCCC(=O)*; αMeF = C[C@](N)(Cc1ccccc1)C(=O)O; αMeK = C[C@](N)(CCCCN)C(=O)O; αMeS = C[C@](N)(CO)C(=O)O; Aib = CC(C)(N)C(=O)O; Ahx = NCCCCCC(=O)O

T1: glucose-dependent insulinotropic peptide (gastric inhibitory polypeptide) receptor (GIPR) (human, UniProt P48546 22-466)
T1 sequence (looked up): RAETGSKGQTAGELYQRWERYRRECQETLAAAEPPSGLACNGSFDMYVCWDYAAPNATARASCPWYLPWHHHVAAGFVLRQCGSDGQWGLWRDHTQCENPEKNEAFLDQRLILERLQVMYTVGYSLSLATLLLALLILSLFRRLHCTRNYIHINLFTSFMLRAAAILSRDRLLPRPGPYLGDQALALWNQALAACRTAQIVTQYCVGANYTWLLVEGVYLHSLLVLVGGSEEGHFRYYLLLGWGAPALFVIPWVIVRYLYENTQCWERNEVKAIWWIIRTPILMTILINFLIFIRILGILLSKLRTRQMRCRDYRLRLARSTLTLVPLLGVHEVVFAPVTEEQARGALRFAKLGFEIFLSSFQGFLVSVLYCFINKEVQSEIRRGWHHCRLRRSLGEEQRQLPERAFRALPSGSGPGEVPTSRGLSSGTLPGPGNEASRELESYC


Experiments:
Test in all cases: cell-based or functional assay
GLP-1 receptor (GLP-1R) = GLP-1 receptor (GLP-1R) (human, UniProt P43220 24-463)
[1] = target: T1, glucose-dependent insulinotropic …
glucagon receptor (GCGR) = glucagon receptor (GCGR) (human, UniProt P47871 26-477)
Sequence of glucagon receptor (GCGR) (P47871 26-477): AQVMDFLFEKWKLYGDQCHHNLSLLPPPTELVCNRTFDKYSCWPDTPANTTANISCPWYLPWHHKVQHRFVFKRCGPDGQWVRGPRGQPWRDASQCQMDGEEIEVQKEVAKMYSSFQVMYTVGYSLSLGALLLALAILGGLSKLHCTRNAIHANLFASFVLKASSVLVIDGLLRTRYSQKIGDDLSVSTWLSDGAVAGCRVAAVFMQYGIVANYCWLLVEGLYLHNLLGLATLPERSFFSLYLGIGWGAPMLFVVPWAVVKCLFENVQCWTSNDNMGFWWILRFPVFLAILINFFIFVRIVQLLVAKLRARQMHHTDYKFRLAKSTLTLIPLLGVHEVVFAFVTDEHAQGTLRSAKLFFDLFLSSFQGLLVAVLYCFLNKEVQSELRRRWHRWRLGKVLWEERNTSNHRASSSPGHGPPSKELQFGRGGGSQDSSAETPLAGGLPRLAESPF

cAMP Mean pM GLP-1R (GLP-1 receptor (GLP-1R)) [pM] | cAMP Primary assay EC50 GLP-1R n1 (GLP-1 receptor (GLP-1R)) [nM] | cAMP Primary assay EC50 GLP-1R n2 (GLP-1 receptor (GLP-1R)) [nM] | cAMP Primary assay EC50 GIP-R [1] [nM] | cAMP Primary assay EC50 GIP-R (2nd) [1] [nM] | cAMP Primary assay EC50 Gluc-R (glucagon receptor (GCGR)) [nM] | cAMP Primary assay EC50 Gluc-R (2nd) (glucagon receptor (GCGR)) [nM] | Binder
12.1 | 0.016 | 0.0087 | 26 | 26 | 26 | 26 | H[Aib]EGS[αMeF]TSDV[αMeS]S[αMeF]LEGEAAK([γGlu-γGlu-γGlu-Stearoyl])E[αMeF]IA[αMeF]VV[αMeK]GG-NH2 (N-terminus assumed; SMILES CCCCCCCCCCCCCCCCCC(=O)N[C@@H](CCC(=O)N[C@@H](CCC(=O)N[C@@H](CCC(=O)NCCCC[C@H](NC(=O)[C@H](C)NC(=O)[C@H](C)NC(=O)[C@H](CCC(=O)O)NC(=O)CNC(=O)[C@H](CCC(=O)O)NC(=O)[C@H](CC(C)C)NC(=O)[C@](C)(Cc1ccccc1)NC(=O)[C@H](CO)NC(=O)[C@](C)(CO)NC(=O)[C@@H](NC(=O)[C@H](CC(=O)O)NC(=O)[C@H](CO)NC(=O)[C@@H](NC(=O)[C@](C)(Cc1ccccc1)NC(=O)[C@H](CO)NC(=O)CNC(=O)[C@H](CCC(=O)O)NC(=O)C(C)(C)NC(=O)[C@@H](N)Cc1c[nH]cn1)[C@@H](C)O)C(C)C)C(=O)N[C@@H](CCC(=O)O)C(=O)N[C@@](C)(Cc1ccccc1)C(=O)N[C@H](C(=O)N[C@@H](C)C(=O)N[C@@](C)(Cc1ccccc1)C(=O)N[C@H](C(=O)N[C@H](C(=O)N[C@@](C)(CCCCN)C(=O)NCC(=O)NCC(N)=O)C(C)C)C(C)C)[C@@H](C)CC)C(=O)O)C(=O)O)C(=O)O) [SEQ ID NO 148]
69 | 0.096 | 0.042 | 28 | 28 | 28 | 28 | H[Aib]EGS[αMeF]TSDV[αMeS]S[αMeF]LEGEAAK([γGlu-Stearoyl])E[αMeF]IA[αMeF]VV[αMeK]GG-NH2 (N-terminus assumed; SMILES CCCCCCCCCCCCCCCCCC(=O)N[C@@H](CCC(=O)NCCCC[C@H](NC(=O)[C@H](C)NC(=O)[C@H](C)NC(=O)[C@H](CCC(=O)O)NC(=O)CNC(=O)[C@H](CCC(=O)O)NC(=O)[C@H](CC(C)C)NC(=O)[C@](C)(Cc1ccccc1)NC(=O)[C@H](CO)NC(=O)[C@](C)(CO)NC(=O)[C@@H](NC(=O)[C@H](CC(=O)O)NC(=O)[C@H](CO)NC(=O)[C@@H](NC(=O)[C@](C)(Cc1ccccc1)NC(=O)[C@H](CO)NC(=O)CNC(=O)[C@H](CCC(=O)O)NC(=O)C(C)(C)NC(=O)[C@@H](N)Cc1c[nH]cn1)[C@@H](C)O)C(C)C)C(=O)N[C@@H](CCC(=O)O)C(=O)N[C@@](C)(Cc1ccccc1)C(=O)N[C@H](C(=O)N[C@@H](C)C(=O)N[C@@](C)(Cc1ccccc1)C(=O)N[C@H](C(=O)N[C@H](C(=O)N[C@@](C)(CCCCN)C(=O)NCC(=O)NCC(N)=O)C(C)C)C(C)C)[C@@H](C)CC)C(=O)O) [SEQ ID NO 146]
66.2 | 0.081 | 0.051 | 28 | 28 | 28 | 28 | H[Aib]EGS[αMeF]TSDV[αMeS]S[αMeF]LEGEAAK([Ahx-Stearoyl])E[αMeF]IA[αMeF]VV[αMeK]GG-NH2 (N-terminus assumed; SMILES CCCCCCCCCCCCCCCCCC(=O)NCCCCCC(=O)NCCCC[C@H](NC(=O)[C@H](C)NC(=O)[C@H](C)NC(=O)[C@H](CCC(=O)O)NC(=O)CNC(=O)[C@H](CCC(=O)O)NC(=O)[C@H](CC(C)C)NC(=O)[C@](C)(Cc1ccccc1)NC(=O)[C@H](CO)NC(=O)[C@](C)(CO)NC(=O)[C@@H](NC(=O)[C@H](CC(=O)O)NC(=O)[C@H](CO)NC(=O)[C@@H](NC(=O)[C@](C)(Cc1ccccc1)NC(=O)[C@H](CO)NC(=O)CNC(=O)[C@H](CCC(=O)O)NC(=O)C(C)(C)NC(=O)[C@@H](N)Cc1c[nH]cn1)[C@@H](C)O)C(C)C)C(=O)N[C@@H](CCC(=O)O)C(=O)N[C@@](C)(Cc1ccccc1)C(=O)N[C@H](C(=O)N[C@@H](C)C(=O)N[C@@](C)(Cc1ccccc1)C(=O)N[C@H](C(=O)N[C@H](C(=O)N[C@@](C)(CCCCN)C(=O)NCC(=O)NCC(N)=O)C(C)C)C(C)C)[C@@H](C)CC) [SEQ ID NO 149]
23.2 | 0.032 | 0.014 | 27 | 27 | 27 | 27 | H[Aib]EGS[αMeF]TSDV[αMeS]S[αMeF]LEGEAAK([γGlu-γGlu-Stearoyl])E[αMeF]IA[αMeF]VV[αMeK]GG-NH2 (N-terminus assumed; SMILES CCCCCCCCCCCCCCCCCC(=O)N[C@@H](CCC(=O)N[C@@H](CCC(=O)NCCCC[C@H](NC(=O)[C@H](C)NC(=O)[C@H](C)NC(=O)[C@H](CCC(=O)O)NC(=O)CNC(=O)[C@H](CCC(=O)O)NC(=O)[C@H](CC(C)C)NC(=O)[C@](C)(Cc1ccccc1)NC(=O)[C@H](CO)NC(=O)[C@](C)(CO)NC(=O)[C@@H](NC(=O)[C@H](CC(=O)O)NC(=O)[C@H](CO)NC(=O)[C@@H](NC(=O)[C@](C)(Cc1ccccc1)NC(=O)[C@H](CO)NC(=O)CNC(=O)[C@H](CCC(=O)O)NC(=O)C(C)(C)NC(=O)[C@@H](N)Cc1c[nH]cn1)[C@@H](C)O)C(C)C)C(=O)N[C@@H](CCC(=O)O)C(=O)N[C@@](C)(Cc1ccccc1)C(=O)N[C@H](C(=O)N[C@@H](C)C(=O)N[C@@](C)(Cc1ccccc1)C(=O)N[C@H](C(=O)N[C@H](C(=O)N[C@@](C)(CCCCN)C(=O)NCC(=O)NCC(N)=O)C(C)C)C(C)C)[C@@H](C)CC)C(=O)O)C(=O)O) [SEQ ID NO 147]
25.4 | 0.028 | 0.022 | 27 | 27 | 27 | 27 | H[Aib]EGS[αMeF]TSDV[αMeS]S[αMeF]LEGEAAK([Ahx-Ahx-Stearoyl])E[αMeF]IA[αMeF]VV[αMeK]GG-NH2 (N-terminus assumed; SMILES CCCCCCCCCCCCCCCCCC(=O)NCCCCCC(=O)NCCCCCC(=O)NCCCC[C@H](NC(=O)[C@H](C)NC(=O)[C@H](C)NC(=O)[C@H](CCC(=O)O)NC(=O)CNC(=O)[C@H](CCC(=O)O)NC(=O)[C@H](CC(C)C)NC(=O)[C@](C)(Cc1ccccc1)NC(=O)[C@H](CO)NC(=O)[C@](C)(CO)NC(=O)[C@@H](NC(=O)[C@H](CC(=O)O)NC(=O)[C@H](CO)NC(=O)[C@@H](NC(=O)[C@](C)(Cc1ccccc1)NC(=O)[C@H](CO)NC(=O)CNC(=O)[C@H](CCC(=O)O)NC(=O)C(C)(C)NC(=O)[C@@H](N)Cc1c[nH]cn1)[C@@H](C)O)C(C)C)C(=O)N[C@@H](CCC(=O)O)C(=O)N[C@@](C)(Cc1ccccc1)C(=O)N[C@H](C(=O)N[C@@H](C)C(=O)N[C@@](C)(Cc1ccccc1)C(=O)N[C@H](C(=O)N[C@H](C(=O)N[C@@](C)(CCCCN)C(=O)NCC(=O)NCC(N)=O)C(C)C)C(C)C)[C@@H](C)CC) [SEQ ID NO 150]
